# B1: 5F12G1: murine monoclonal anti-BKB2R antibody (IgG2b,κ), VH comprising SEQ ID NO:1, VL comprising SEQ ID NO:2 (antibody, listed as Mus musculus, V domains shown)
# VH: EVKLEESGGGLVQPGGSMKLSCVVSGFTFSDYWMSWVRHSPEMGLEWVAEIRLKSDNYATHYAESVKGRFTISRDDSKSRLYLQINSLRGEDTGIYYCTRDYYAMEYWGQGTSVTVSS
# VL: DVVMTQTPLSLPVSLGDQASISCRSSQTIVHSNGKTYLEWYLQKPGQSPKLLIYKVSNRFSGVPDRFSGSGSGTEFTLKISRVETEDLGVYYCFQASHVPYTFGGGTKLEIK
# Key:
# [1] = test system: HT-29; assay: MTT Cell Proliferation Assay, HT-29; type: cell-based, human; conditions: 120 hours of exposure
# Excerpt: (§1) This Example describes characterization of the cytotoxic activity of herein described anti-BKB2R monoclonal antibodies against a panel of cancer cell lines. BxPC-3 is a human adenocarcinoma cell line originally isolated from the pancreas (pancreatic cancer) (ATCC # CRL-1687; Tan et al., Cancer Invest. 4: 15-23, 1986. PubMed: 3754176). MV-4-11 is a human biphenotypic B myelomonocytic leukemia (mixed-lineage leukemia, MLL-AF4) cell line originally isolated from the peripheral blood (ATCC # CRL-959; Lange et al., Blood 70: 192-199, 1987. PubMed: 3496132). Hep G2 is a human hepatocellular carcinoma cell line isolated from the liver (liver cancer) (ATCC # HB-8065; Aden et al., Nature 282: 615-616, 1979. PubMed: 233137). RS4;11 is a human acute lymphoblastic leukemia (mixed-lineage leukemia, MLL-AF4) cell line isolated from the bone marrow (ATTC # CRL-1873) Stong et al., Blood 65: 21-31, 1985. PubMed: 3917311). HT-29 is a human colorectal adenocarcinoma (ATTC # HTB-38) cell line isolated from the colon (colon cancer). Fogh et al., J. Natl. Cancer Inst. 58: 209-214, 1977. PubMed: 833871). NUGC-4 is a human stomach carcinoma isolated from the stomach paragastiric lymph node (JCRB # JCRB0834; Akiyama et al., Jpn. J. Surg., 18: 438-446, 1988). […]
# (§2) The anti-proliferative activity of test compounds against the indicated cell lines was evaluated in vitro using the ATCC's MTT Cell Proliferation Assay (Catalog No. 30-1010K). After the 120 hour incubation with drug (e.g., anti-BKB2R mAb or cisplatin), cell proliferation was measured by addition of MTT reagent to each well and incubation for an additional 4 hrs. […] Optical absorbance (570 nm) of the test wells was measured and then quantitated relative to control wells that received no drug. Results were expressed as percent inhibition versus compound concentration and graphed, as shown in FIGS. 19-25, for cell lines BxPC-3, MV-4;11, HepG2, RS-4;11, HT-29, NUGC-4, and PC-3, respectively.
# [2] = test system: PC-3; assay: MTT Cell Proliferation Assay, PC-3; type: cell-based, human; conditions: 120 hours of exposure
# Excerpt: as §1, §2
# [3] = target: T1, human BKB2R-derived epitope peptide, SE ID NO:73 (Homo sapiens, UniProt P30411); assay: ForteBio Octet binding kinetics to the BKB2R epitope peptide
# T1 construct: purchased Biosyn, Lewisville, Tex
# Procedure, shortened: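 Antibodies were titrated kinetically on a ForteBio Octet label-free biolayer interferometry platform against the human BKB2R epitope peptide (SEQ ID NO:73), compared with the parent mouse monoclonal. Streptavidin biosensors coated with biotinylated peptide at 50 μg/ml were equilibrated in kinetic buffer, then underwent 500 s association in antibody dilutions and 500 s dissociation in buffer.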
molecule,measurement,setting,value
B1,EC 50 Values (ng/ml) HT-29,[1],16000 ng/mL
same,EC 50 Values (ng/ml) PC-3,[2],4200 ng/mL
same,Max Response,[3]; Conc. 833 nM,0.0265
same,kdis,[3]; Conc. 833 nM,0.00109 s⁻¹
same,kon,[3]; Conc. 833 nM,2350 M⁻¹ s⁻¹
same,Max Response,[3]; Conc. 1000 nM,0.0385
same,kdis,[3]; Conc. 1000 nM,0.00109 s⁻¹
same,kon,[3]; Conc. 1000 nM,2350 M⁻¹ s⁻¹
same,Max Response,[3]; Conc. 1667 nM,0.0544
same,kdis,[3]; Conc. 1667 nM,0.00109 s⁻¹
same,kon,[3]; Conc. 1667 nM,2350 M⁻¹ s⁻¹
same,Max Response,[3]; Conc. 3333 nM,0.0757
same,kdis,[3]; Conc. 3333 nM,0.00109 s⁻¹
same,kon,[3]; Conc. 3333 nM,2350 M⁻¹ s⁻¹

# — US20140017242A1, “ANTI-BRADYKININ B2 RECEPTOR (BKB2R) MONOCLONAL ANTIBODY” (Diamedica, Inc., priority 2010, published 2014)
